From patent publication EP1746106A2 (Biogen Idec MA Inc., dated 2007)

T1: N-terminus FLAG-tagged human full length TACI expressed on 293EBNA cells (pJST552) (human, UniProt O14836 1-293)
T1 construct: also called FLAG-tagged full length human TACI; flag-tagged full length TACI; not shown: N-terminal FLAG tag
T1 sequence: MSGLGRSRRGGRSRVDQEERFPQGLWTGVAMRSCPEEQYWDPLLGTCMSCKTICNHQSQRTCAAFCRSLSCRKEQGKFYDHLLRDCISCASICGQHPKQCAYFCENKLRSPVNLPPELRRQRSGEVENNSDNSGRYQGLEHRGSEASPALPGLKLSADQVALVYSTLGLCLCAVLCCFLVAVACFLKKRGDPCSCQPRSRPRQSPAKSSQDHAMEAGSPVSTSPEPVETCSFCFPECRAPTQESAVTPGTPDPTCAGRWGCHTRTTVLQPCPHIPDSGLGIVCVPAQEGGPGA


Experiments:
[1] = biological target: T1, N-terminus FLAG-tagged human full …; experiment: flow cytometry on 293EBNA cells transfected with FLAG-tagged full length human TACI; detection with rabbit anti-mAPRIL Rb1532 and anti-rabbit IgG-PE
[2] = biological target: T2, FLAG-tagged soluble muBAFF (murine, UniProt Q9WU72 127-309, limits assumed); experiment: co-immunoprecipitation with protein A-Sepharose, anti-FLAG M2 Western blot
T2 construct: Anti-FLAG M2-purified, 500 ng used; not shown: FLAG tag
T2 sequence (Q9WU72 127-309 limits assumed): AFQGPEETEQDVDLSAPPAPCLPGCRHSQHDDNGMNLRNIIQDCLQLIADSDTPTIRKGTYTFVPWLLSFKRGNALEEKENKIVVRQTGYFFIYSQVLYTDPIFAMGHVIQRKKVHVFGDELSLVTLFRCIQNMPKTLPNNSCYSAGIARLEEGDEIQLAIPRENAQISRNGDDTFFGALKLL

Binder | binding result [1] | binding result [2]
myc-tagged murine APRIL (ligand, Glycosylated (expressed in Pichia pastoris); the letters do not carry the glycans., Purified from P. pastoris supernate; also called myc-muAPRIL; Myc-Murine APRIL A88) EQKLISEEDLNGGGGSKELAVLTQKHKKKHSVLHLVPVNITSKDSDVTEVMWQPVLRRGRGLEAQGDIVRVWDTGIYLLYSQVLFHDVTFTMGQVVSREGQGRRETLFRCIRSMPSDPDRAYNSCYSAGVFHLHQGDIITVKIPRANAKLSLSPHGTFLGFVKL | binds | 
human TACI(1-160)-Ig fusion protein (Fc fusion, Used as conditioned medium (Optimem) from transfected 293 cells; also called hTACI(1-160)-Ig; PS882 product; not shown: human IgG-Fc) MSGLGRSRRGGRSRVDQEERFPQGLWTGVAMRSCPEEQYWDPLLGTCMSCKTICNHQSQRTCAAFCRSLSCRKEQGKFYDHLLRDCISCASICGQHPKQCAYFCENKLRSPVNLPPELRRQRSGEVENNSDNSGRYQGLEHRGSEASPALPGLKLSADQV |  | no binding (tested: 500 ng)
